Laboratory results: publication doi:10.1101/2024.06.13.598862 (bioRxiv, 2024)

Biological target: full-length human tau, null cysteine variant (C291S, C322S) (human, UniProt P10636-8 1-441, C291S | C322S)
Assay: co-phase separation

binding result: binds
B1: Ydj1, yeast Hsp40 (natural protein, UniProt P25491 1-409, looked up)
chain: MVKETKFYDILGVPVTATDVEIKKAYRKCALKYHPDKNPSEEAAEKFKEASAAYEILSDPEKRDIYDQFGEDGLSGAGGAGGFPGGGFGFGDDIFSQFFGAGGAQRPRGPQRGKDIKHEISASLEELYKGRTAKLALNKQILCKECEGRGGKKGAVKKCTSCNGQGIKFVTRQMGPMIQRFQTECDVCHGTGDIIDPKDRCKSCNGKKVENERKILEVHVEPGMKDGQRIVFKGEADQAPDVIPGDVVFIVSERPHKSFKRDGDDLVYEAEIDLLTAIAGGEFALEHVSGDWLKVGIVPGEVIAPGMRKVIEGKGMPIPKYGGYGNLIIKFTIKFPENHFTSEENLKKLEEILPPRIVPAIPKKATVDECVLADFDPAKYNRTRASRGGANYDSDEEEQGGEGVQCASQ
